The term koff denotes the first-order rate constant of dissociation. Usually Kd stands for the free concentration of one partner at which half of the binding sites on the other are occupied at equilibrium, for simple one-to-one binding.

The values that follow come from patent US20230348603A1 (VERSEAU THERAPEUTICS, published 2023).

Positions count from the first letter of the chain named. Numbers in names are those of the source.

First the molecules themselves.
T1: Human VSIG4-L-His (human, UniProt Q9Y279 20-283)
T1 construct: long isoform ECD with His tag; also called hVSIG4-L
T1 sequence: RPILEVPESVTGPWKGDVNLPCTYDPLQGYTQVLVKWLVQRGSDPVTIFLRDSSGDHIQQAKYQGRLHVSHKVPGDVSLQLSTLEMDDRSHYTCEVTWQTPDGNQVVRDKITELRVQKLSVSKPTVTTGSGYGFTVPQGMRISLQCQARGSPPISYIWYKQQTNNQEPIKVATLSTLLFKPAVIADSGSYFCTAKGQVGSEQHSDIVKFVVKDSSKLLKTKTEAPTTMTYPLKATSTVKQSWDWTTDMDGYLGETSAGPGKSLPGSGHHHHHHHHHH

T2: Human VSIG4-S-His (human, UniProt Q9Y279 20-283)
T2 construct: short isoform ECD with His tag; also called hVSIG4-S; VISG4-S-His
T2 sequence: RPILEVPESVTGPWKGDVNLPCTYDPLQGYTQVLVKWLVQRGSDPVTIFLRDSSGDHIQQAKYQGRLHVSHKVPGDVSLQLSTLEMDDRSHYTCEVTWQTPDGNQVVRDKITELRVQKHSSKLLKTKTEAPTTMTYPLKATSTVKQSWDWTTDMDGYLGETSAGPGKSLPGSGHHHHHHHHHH

T3: Cynomolgus Monkey VSIG4-L-His (cynomolgus monkey)
T3 construct: ECD with His tag; also called cyVSIG4-L; cyno VSIG4-L-His
T3 chain: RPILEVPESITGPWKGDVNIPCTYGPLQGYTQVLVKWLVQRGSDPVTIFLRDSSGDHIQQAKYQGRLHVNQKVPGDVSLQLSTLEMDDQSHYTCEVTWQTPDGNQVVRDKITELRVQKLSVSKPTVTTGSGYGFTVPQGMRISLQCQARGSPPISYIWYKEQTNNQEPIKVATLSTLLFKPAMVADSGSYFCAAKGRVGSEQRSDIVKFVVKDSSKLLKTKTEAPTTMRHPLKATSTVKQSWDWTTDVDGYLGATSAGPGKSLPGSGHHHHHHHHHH

B1: 16E03 mouse Fab (periplasmic extract) (Fab, V domains shown)
VH: QVQLQQSGAELARPGASVKMSCKASGYTFTSYTMHWIKQRPGQGLEWIGYINPSSGHTYYNQKFKDKATLTPDKSSSTAYMQLTSLTSEDSAVYYCARRIPTAYAMDYWGQGTSVTVSS
VL: EIQMTQSHKFMSTSVGDRVSITCKASQDVGTAVAWYQQKPGQSPKLLIYWASTRHTGVPDRFTGSGSGTDFTLTISNVQSEDLADYFCQQYSSYPLTFGAGTKLELK
notes: mouse Fab with C-terminal His6-c-myc tag
B2: 15C04 mouse Fab (periplasmic extract) (Fab, V domains shown)
VH: QIQLQESGPSLVRPSQTLSLTCSVTGDSITSGYWNWIRKFPGDKLEYLGYISYSGFTYYNPSLKSRISITRDTSKNQYYLQLNSVTTEDTATYYCASSYYGSSLGFPYWGQGTLVTVSA
VL: DVVMTQTPLSLPVSLGDQASISCRSSQSLVHSNGNTYLHWYLQKPGQSPKLLIYKVSNRFSGVPDRFSGSGSGTDFTLKISRVEAEDLGVYFCSQSTHVPWTFGGGTKLEIK
notes: as for B1
B3: 16F6.E1 mouse/human chimeric IgG4 (S228P) kappa (antibody, V domains shown)
VH: QVQLQQPGAEMVRPGASLKLSCKASGYTFTSYWMHWVKQRPGQGLEWIGKIDPSKNTTHYNQNFRDKATLTVDRSSSTAYMQLNSLTSEDSAVYFCVTWDGDFTYWGQGTLVTISA
VL: NIVLTQSPPSLAVSLGQRATISCRASESVDSYGNSFMHWYQQKPGQPPKLLIYLASNLESGVPARFSGSGSRTDFTLTIDPVEADDAATYFCHQNNEDPWTFGGGTKLEIKR
B4: A1 anti-VSIG4 antibody, human IgG4 (S228P) kappa (antibody, V domains shown)
VH: QVTLKESGPTLVKPTQTLTLTCTFSGISLTTSGMGVGWIRQPPGKALEWLADIFWDDNKYYNPSLKSRLTITKDTSKNQVVLTMTNMDPVDTATYYCVRVYYKNDGYFDVWGKGTTVTVSS
VL: DIVLTQSPLSLPVTLGQPASISCRASKSVTTSGYSFMHWYQQRPGQSPRLLIYLASNLEPGVPDRFSGSGSGTDFTLKISRVEAEDVGVYYCQQSGELPYTFGQGTKLEIKR
notes: variable regions from U.S. Pat. Publ
B5: A2 anti-VSIG4 antibody, human IgG4 (S228P) kappa (antibody, V domains shown)
VH: B4 VH
VL: B4 VL with S80F
notes: as for B4
B6: EU103.2 anti-VSIG4 antibody, human IgG4 (S228P) kappa (antibody, V domains shown)
VH: QVQLQESGPGLVKPSQTLSLTCSFSGISLTTSGMGVGWIRQPPGKGLEWLADIFWDDNKYYNPSLKSRVTISVDTSKNQFSLKLSSVTAADTAVYYCVRVYYKNDGYFDVWGQGTLVTVSS
VL: EIVMTQSPATLSVSPGERATLSCRASKSVTTSGYSFMHWYQQKPGQAPRLLIYLASNLEPGIPARFSGSGSGTEFTLTISSLQSEDFAVYYCQHSRELPYTFGQGTKLEIKR
notes: as for B4
B7: 14F8.H6 murine hybridoma antibody (antibody, V domains shown)
VH: EVHLVESGGALVKPGGSLKLSCTASGFTFSNSVMSWIRQTPEKRLEWVATIGSGGTYIYYPDSVKGRFTISRDNSKNTLFLQMTSLRSEDTALYYCARHIYGYDVVDYWGQGTTLTVST
VL: DIVMTQSHRFMSTSVGDRVSITCKASHDVSNVVAWYQQKPGQSPELLIYSASYRYTGVPARFTGSGSGTDFTFTISSVQAEDLAVYFCQQHFTTPLTFGAGTSLEVR
notes: murine IgG purified from hybridoma supernatant
B8: 10E8.B6 murine hybridoma antibody (antibody, V domains shown)
VH: EVQLQQSGPELMKPGDSVKMSCKASGYTFTDYYMDWVKQSHGKSLEWIGYIYPNIDFTTYNQKFKGKATLTVDKSSNTAYMELHSLTSEDSAVYYCTRRDLPLHGSAYYFDYWGQGTTLTVSS
VL: DIVMSQSPSSLAVSAGEKVTMSCKSSQSLLNSRTRKNYLAWYQQKPGQSPKLLIYWASTRESGVPDRFTGSGSGTDFTLTISSVQAEDLAVYYCKQSYDLFTFGSGTKLEIK
notes: as for B7
B9: 13E11.A4 murine hybridoma antibody (antibody, V domains shown)
VH: EVQLVESGGALVKPGGSLKLSCVASRFNLNNCVMSWIRQTPEKRLEWVATIDSGSIYTYYPDSVKGRFTISRDNAKNTLYLQMSSLRSEDTAVYYCVRHIYGYDVVDNWGQGTTLTVAS
VL: DIVMTQSHKFMSTSVGDNVSITCKASQYVSNTVAWYQQKPGQSPKLLIYSASYRNTGVPDRFTGSGSGTNFTFTISNMQAEDLAFYYCQQHYTSPLTFGAGTKLELK
notes: as for B7
B10: 5D2.C8 murine hybridoma antibody (antibody, V domains shown)
VH: EVKLVESGGGLVKPGGSLKLSCAVSGFTFSNSAMSWVRQTPAKRLEWVAYISISGDNTYYPDSVKGRFTISRDNAKNTLYLQMSSLRSEDTAMYYCARRGYDYDGFTHWGQGTLVTVSA
VL: DILLTQSPAILSVSPGERVSFSCRASQNIGTSIHWYQQRTNGSPRLLIKYASQSISGIPSRFSGSGSGTDFTLSINSVESEDIADYYCQQSYSWPLTFGTGTQLELK
notes: as for B7
B11: 1C6.D6 murine hybridoma antibody (antibody, V domains shown)
VH: QVQLQQPGAEMVRPGTSVKLSCKASGYTFTSYWMHWVKQRPGQGLEWIGKIDPSHNKTHYIQKFEDKATLTVDKSSSTAYMHLNSLTSEDSAVYYCVTWDGDFLYWGQGTLVTVSA
VL: NIVLTQSPASLTVSLGQRATISCRASESVDSYGNSFMHWYQQKPGQPPKLLIYITSNLQSGVPARFSGGGSRTDFTLTIDPVEADDAATYYCQQNNEDPWTFGGGTKLEIK
notes: murine IgG purified from hybridoma supernatant; also called 1C6.D6b
B12: 16F6.E1 murine hybridoma antibody (antibody, V domains shown)
VH: B3 VH
VL: B11 VL with A9P, T12A, I54L, T55A, Q59E, G69S, Y91F, Q93H
notes: murine IgG purified from hybridoma supernatant; also called 16F6.H6
B13: 1H7.C7 murine hybridoma antibody (antibody, V domains shown)
VH: EVQLVESGGGLVMPGGSRRLSCAASGFTFSDSGMYWVRQAPEKGLEWIAYISSGSDTLYYAATVKGRFTISRDNAKNTLFLQMTSLRSEDTAIYYCAKRNFYGYDVMDYWGQGTSVTVSS
VL: DIVMTQSHKFMSTSVGDRVSITCKASQDVSNVVAWYQQKPGQSPKLLIYSASYRYTGVPDRFAGSGSGTDFTFTISSVQAEDLAVYYCQQHYSTPWTFGGGTKLEIK
notes: as for B7
B14: 9A10.C4 murine hybridoma antibody (antibody, V domains shown)
VH: EVQLVESGGALVQPGGSLKLSCVASGFSFSNCVMSWVRQSPEKRLEWVATIGSDGSYSYYQDNVKGRFTVSRDNAKNTLYLQMSSLGSEDTALYYCGRHIYGYDVVDYWGQGTSLTVSS
VL: B13 VL with S20T, Y36F, Y55F, T56G, A63T, S93D, W96L, G100T, K103T, I106L
notes: as for B7

T4 sequence (chain, as listed by the source limits assumed): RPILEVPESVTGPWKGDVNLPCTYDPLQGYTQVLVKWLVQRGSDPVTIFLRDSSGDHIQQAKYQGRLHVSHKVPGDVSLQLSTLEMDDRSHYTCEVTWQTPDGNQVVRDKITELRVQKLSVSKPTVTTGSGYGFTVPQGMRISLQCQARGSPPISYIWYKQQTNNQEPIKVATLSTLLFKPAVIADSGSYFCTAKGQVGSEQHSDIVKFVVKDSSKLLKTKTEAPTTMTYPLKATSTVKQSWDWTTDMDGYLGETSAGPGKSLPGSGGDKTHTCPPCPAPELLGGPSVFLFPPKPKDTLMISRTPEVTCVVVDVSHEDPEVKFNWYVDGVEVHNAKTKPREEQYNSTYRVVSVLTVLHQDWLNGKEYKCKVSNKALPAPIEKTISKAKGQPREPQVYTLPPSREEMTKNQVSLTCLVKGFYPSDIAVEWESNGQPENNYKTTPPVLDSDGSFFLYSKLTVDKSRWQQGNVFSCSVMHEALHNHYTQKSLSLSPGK

One assay deals with T1, Human VSIG4-L-His. The experiment in a line: SPR (Biacore T200), Fab P.E. 1:5 over immobilised antigen. (In general: SPR reads the build-up and loss of mass on a sensor chip optically.)
Protocol: Off-rate values of the mouse unique Fab clones were determined using surface plasmon resonance (SPR) in Biacore™ T200 equipment (GE Healthcare, Chicago, IL). […] The immobilization was performed in accordance with a method provided by Biacore and by using the NHS/EDC kit (GE Healthcare, Chicago, IL). […] Sixty μl of Fab P.E. samples, diluted 1:5 in HBS-EP+ assay buffer (0.1 M HEPES, 1.5 M NaCl, 0.03 M EDTA and 0.5% v/v Surfactant P20), were injected and passed through the flow cells at a flow rate of 30 μl/min. After binding of the samples to VSIG4 protein, the off-rate was monitored for a period of five minutes. The flow cell surface was regenerated by a double injection of 10 μl of 1 mM glycine at pH 1.5 in 1 M sodium chloride at 30 μl/min. Off-rate analysis was done using the BIAevaluation software (GE Healthcare, Chicago, IL) and using a 1:1 dissociation kinetic fit curve.
For the molecule B1, the koff came to 0.013 s⁻¹.
Still for that read-out and setting: the result for B2 reads 0.0019 s⁻¹.

A further assay addresses T4, Human VSIG4-L-Fc (human).
T4 construct: also called hVSIG4-L-Fc; hVSIG4-L
The experiment in a line: BLI cross-blocking on hVSIG4-L-Fc, competitor 12A12 first.
Protocol: (§1) All assay steps occurred at 30° C. with an acquisition rate of 5.0 Hz.
As for B3, the “binding signal (nm shift)” value was 0.09 nm.
On the same count and under the same terms, with B4 the figure was 0.57 nm.
Still for that read-out and setting: the result for B5 reads 0.6 nm; that for B6, 0.3 nm.

The target of another assay is T1, Human VSIG4-L-His. In words: BLI (Octet), mouse IgG on AMC sensor, antigen 100 nM.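 Note: octet Red384 biolayer interferometry with immobilized mouse hybridoma antibodies, 300 s association then 300 s dissociation at 30 °C, isotype-control reference subtraction, 1:1 global fit.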
Protocol: (§2) The binding affinity of murine hybridoma antibodies was determined by biolayer interferometry (BLI), using a ForteBio Octet® Red384 system. […] Biosensors were rehydrated prior to the assay in kinetics buffer for 10 minutes and then equilibrated in kinetics buffer for 60 seconds. Antibody was then immobilized for 300 seconds followed by a 120 second baseline wash in fresh kinetics buffer, 300 second analyte association, and 300 second dissociation in the same buffer wells as the baseline wash step. All assay steps occurred at 30° C. with an acquisition rate of 5.0 Hz. Processing parameters included reference subtraction, with mouse IgG1 or mouse IgG2a used as an isotype control for reference sensor subtraction. Y-axis data was aligned to the average baseline step for the last 5 seconds and all steps were inter-step corrected to the start of the dissociation step. High frequency noise was removed using Savitzky-Golay filtering and final fitting was a 1:1 global binding model to both association and dissociation.
Molecule B7 displayed a Kd of 1.72 nM.
Same read-out and setting: with B8 the figure was 2.13 nM.
Still for that read-out and setting: the result for B9 reads 1.76 nM.
Still for that read-out and setting: the result for B10 reads 0.475 nM.
Molecule B11 yielded a Kd of 1.03 nM.
Molecule B12 displayed a Kd of 0.472 nM.
The same measure, in the same setting: with B13 the figure was 6.83 nM; with B14, 0.965 nM.

A further assay addresses T2, Human VSIG4-S-His. The description is as above.
Protocol: as §2
The molecule B7 came in with a Kd of 5.86 nM.
On to B8, for which the Kd came out at 6.95 nM.
The same measure, in the same setting: the result for B9 reads 4.99 nM; that for B10, 0.505 nM.
Still for that read-out and setting: with B11 the figure was 3.29 nM; with B12, 2.87 nM.
Still for that read-out and setting: with B13 the figure was 21.5 nM; with B14, 5.16 nM.

A further assay concerns the target T3, Cynomolgus Monkey VSIG4-L-His. Described as above.
Protocol: as §2
B7: the Kd worked out at 2.02 nM.
The molecule B8 had a Kd of 1.56 nM.
Take B9: the Kd came to 1.4 nM.
Still for that read-out and setting: the result for B10 reads 0.435 nM; that for B11, 1.13 nM; that for B12, 0.802 nM.
With B13, the Kd was 6.45 nM.
Still for that read-out and setting: the result for B14 reads 1.23 nM.

The next assay concerns the target T4, Human VSIG4-L-Fc. The experiment in a line: ELISA, Fab P.E. 1:5 on coated antigen.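 Note: mouse Fab P.E. samples in 1% skimmed milk PBS, bound to antigen-coated wells for 1 h at room temperature, read as absorbance.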 Background: An ELISA detects its analyte on a solid surface through an enzyme-linked reagent.
Protocol: (§3) Coated microplates were blocked with dried skimmed milk at 4% in PBS. P.E. samples of the mouse unique Fab sequences were diluted 1:5 in assay buffer (1% dried skimmed milk in PBS), and 100 μl of diluted sample was added onto the coated wells and incubated for one hour at room temperature. […] Optical density (OD) at 450 nm was determined using a standard absorbance microplate reader.
For the molecule B1, the “ELISA OD450” value amounted to 4.43 OD450.
B2: the “ELISA OD450” value came to 4.21 OD450.

In another assay the target is T5, Human VSIG4-S-Fc (human).
T5 construct: short isoform ECD fused to human Fc1; also called hVSIG4-S
T5 sequence (chain, as listed by the source limits assumed): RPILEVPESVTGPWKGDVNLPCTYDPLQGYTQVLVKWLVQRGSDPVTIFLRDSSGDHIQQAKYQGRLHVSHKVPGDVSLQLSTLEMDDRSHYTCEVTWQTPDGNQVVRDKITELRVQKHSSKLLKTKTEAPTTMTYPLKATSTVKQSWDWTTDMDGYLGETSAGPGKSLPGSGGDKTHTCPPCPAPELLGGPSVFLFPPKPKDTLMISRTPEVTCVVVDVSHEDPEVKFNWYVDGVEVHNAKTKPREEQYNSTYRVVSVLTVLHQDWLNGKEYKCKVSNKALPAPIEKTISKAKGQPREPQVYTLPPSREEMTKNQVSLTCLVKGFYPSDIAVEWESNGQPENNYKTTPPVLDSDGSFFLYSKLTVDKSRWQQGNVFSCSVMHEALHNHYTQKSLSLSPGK
The experiment in a line: ELISA, Fab P.E. 1:5 on coated antigen.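 Note: mouse Fab P.E. samples in 1% skimmed milk PBS, bound to antigen-coated wells for 1 h at room temperature, read as absorbance.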
Protocol: as §3
For B1, the “ELISA OD450” value came out at 4.3 OD450.
The same measure, in the same setting: the result for B2 reads 0.06 OD450.

A further assay concerns the target T3, Cynomolgus Monkey VSIG4-L-His. The experiment in a line: ELISA, Fab P.E. 1:5 on coated antigen.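 Note: mouse Fab P.E. samples in 1% skimmed milk PBS, bound to antigen-coated wells for 1 h at room temperature, read as absorbance.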
Protocol: as §3
For the molecule B1, the “ELISA OD450” value was determined as 0.21 OD450.
On the same count and under the same terms, with B2 the figure was 0.05 OD450.

For the next assay, the target named is T4, Human VSIG4-L-Fc. The experiment in a line: BLI cross-blocking on hVSIG4-L-Fc, competitor 14C05 first.
Protocol: as §1
In the case of B3, the “binding signal (nm shift)” value stood at 0.56 nm.
Take B4: the “binding signal (nm shift)” value came to 0.55 nm.
The same measure, in the same setting: with B5 the figure was 0.57 nm.
Turning to B6, the “binding signal (nm shift)” value came out at 0.29 nm.
